In patent publication US20080227700A1, “Compositions and Methods for Treatment of Protein Misfolding and Protein Aggregation Diseases” (priority 2004, published 2008):

Legend:
beta amyloid = beta amyloid (Homo sapiens, UniProt P05067); experiment: αB crystallin protein pin array screened for binding to beta amyloid; conditions: immobilized 8-mer peptide; absorption at 450 nm; assayed 2-5 times
Text: αB Crystallin peptides that bind the target protein beta-amyloid were identified by screening an αB crystallin protein pin array, which provides a systematic method for evaluating interactions between peptides corresponding to residues 1-175 of human αB crystallin and selected target proteins in a parallel and simultaneous manner.
Peptides were synthesized on derivatized polyethylene pins arranged in a microtiter plate format. Each peptide was 8 amino acids in length and consecutive peptides were offset by 2 amino acids. All peptides were covalently bonded to the surface plastic pins. The first immobilized peptide was 1MDIAIHHP8 and the last peptide was 168PAVTAAPK175 for the human αB crystallin.
After synthesis, the pins were pre-coated at room temperature with 2% Bovine Serum Albumin (BSA), 0.1% Tween-20 and 0.1% Sodium azide in 10 mM phosphate buffered saline pH 7.2 (PBS) for 1 hr, and washed three times for 10 mins each with 10 mM PBS. To screen for binding to the peptides, fixed concentrations of the target protein beta amyloid was dissolved in 10 mM PBS, containing 0.05% Tween-20, added to each well and incubated for 1 hr at room temperature. The pin array was washed three times for 10 mins each with 10 mM PBS, containing 0.05% Tween-20. Monoclonal or polyclonal primary antibodies for the target protein beta amyloid was diluted into PBS buffer, added to each well and incubated for 1 hr at room temperature. Subsequently, the pin array was washed three times for 10 mins each with 10 mM PBS containing 0.05% Tween-20. Anti-rabbit horse-radish peroxidase conjugate secondary antibodies was diluted into PBS buffer, added to each well and incubated for 1 hr at room temperature. The pin array was washed three times for 10 mins each with 10 mM PBS containing 0.05% Tween-20. A chromogenic substrate of horse-radish peroxidase 3,3′,5,5′-Tetramethylbenzidine (TMB) (Pharmingen, San Diego, Calif.) which is colorless was added, and the reaction was carried out for 45 min.
The reaction was stopped by adding 6N sulfuric acid, which changes the color from blue to yellow. The absorption at 450 nm was measured by an ELISA reader (BioTek, Winooski, Vt.).
The pin array was regenerated by sonication in a water bath (VWR Aquasonic, West Chester, Pa.) with 100 mM PBS, containing 1% Sodium dodecyl sulfate (SDS) and 0.1% 2-Mercaptoethanol @ 60° C. for 10 mins. Next, the pin array was rinsed three times in deionized water, preheated to 60° C. for 30 secs each time, and shaken in water preheated at 60° C. for 30 min. The pin array was then washed with methanol at 60° C. for 15 secs and air-dried and stored @−20° C. for future use. Each target protein was assayed 2-5 times against the human αB crystallin protein pin array peptides to verify the reproducibility of the results. Peptides numbered 5, 7, 8, 9, 13, 19, 22, 23, 24, 27, 35, 38, 45, 51, 52, 56, 57, 61, 66, 71, 72, and 79 in Table 2 reproducibly tested positive in the protein pin assay.

γD crystallin = target: T1, γD crystallin (Homo sapiens, UniProt P07320); experiment: Protein pin array interaction with γD crystallin; format: binding; design: purchased; conditions: unheated γD crystallin; similar peptide sequences with γD crystallin pre-heated at 45° C. for fifteen minutes
T1 sequence (P07320 1-174): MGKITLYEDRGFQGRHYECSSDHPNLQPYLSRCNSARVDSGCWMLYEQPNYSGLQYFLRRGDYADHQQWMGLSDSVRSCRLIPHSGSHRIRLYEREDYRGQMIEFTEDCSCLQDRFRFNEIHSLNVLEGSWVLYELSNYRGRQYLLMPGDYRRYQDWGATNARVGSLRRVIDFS
Text: (§1) Synthesis of Pins, binding and detection of peptides binding to ligand proteins. The αB crystallin protein pin array was used to measure the interaction between peptides and chaperone target proteins including bovine βH crystallin, human γD crystallin, equine alcohol dehydrogenase (ADH) and porcine citrate synthase (CS) as described (FIG. 12). Ghosh and Clark, Protein Sci 14: 684-95, 2005.
(§2) Refer to the methods section for detailed protocols. The absorbance corresponding to the blue coloration in each well was measured at λ=450 nm and plotted against the amino acid sequence of the corresponding peptide in that well (FIGS. 13 and 14). Wells containing peptides that have strong interactions with target proteins are dark blue and wells containing peptides that have weak or no interaction with target proteins are light blue or clear.
(§3) The purity of the target proteins used in the pin array assays, bovine βH crystallin, human γD crystallin, equine alcohol dehydrogenase (ADH) and porcine citrate synthase (CS) were determined to be >90% by SDS-PAGE. In addition, primary antibodies for each target protein were specific to that target protein and consequently contaminating proteins that may bind to the peptides will not be detected. Eighty-four sequential and overlapping peptide fragments corresponding to residues 1-175 of human αB crystallin were synthesized employing a simultaneous peptide synthesis strategy developed by Geysen, called Multipin Peptide Synthesis (Mimotopes, San Diego, Calif.). Geysen, Southeast Asian J Trop Med Public Health 21: 523-33, 1990; Chin et al., J Org Chem 62: 538-539, 1997. Peptides were immobilized on derivatized polyethylene pins arranged in a microtiter ELISA plate format. Each peptide was eight amino acids in length and consecutive peptides were offset by two amino acids. All peptides were bound covalently to the surface of the plastic pins. The first peptide was […] for human αB crystallin.
(§4) Ghosh and Clark, Protein Sci 14: 684-95, 2005. […] The intensity of the blue color in the wells was measured at 450 nm using an ELISA plate-reader (BioTek, Winooski, Vt.). The intensity of the blue color (plotted on the X-axis) was a measure of the interaction between αB crystallin peptides (plotted on the Y-axis) and target proteins. To measure the effect of temperature on the interactions between interactive peptides and the target proteins, the target proteins were heated in a water-bath at 45° C. for fifteen minutes prior to use. Pin arrays are unable to differentiate between monomers, dimers or oligomers of target proteins that exist in solution. Instead, pin arrays are very sensitive detectors of interactions between individual peptides and the entire population (monomers, dimers or oligomers) of specific target proteins that may exist in solution under specific conditions. Each target protein was assayed two to five times. A single pin array was used for all experiments and no change in interactions was observed after more than thirty repetitions. The last three peptides of the protein pin array, 163REEKPAVT170, 165EKPAVTAA172, 167PAVTAAPK174, correspond to the epitope (163REEKPAVTAAPKK175) recognized by the primary antibody for human αB crystallin. A positive reaction is observed for these three peptides in the absence of human αB crystallin as the ligand due to direct binding of the anti-human αB crystallin antibody to these three peptides. The loss of efficiency for the pin array was measured using this assay. The loss of efficiency for the pin array was determined to be <5% by after more than 30 assays.
(§5) The amino acid sequences of each 8-mer human αB crystallin peptide immobilized sequentially on 84 pins in a 96-well ELISA plate format are listed on the Y-axis. […]

bovine βH crystallin = experiment: Protein pin array interaction with βH crystallin; format: binding; conditions: unheated βH crystallin; similar maxima with βH crystallin pre-heated at 45° C. for fifteen minutes
Text: as §1, §2, §3, §4, §5

[1] = target: T2, porcine citrate synthase (CS) (Sus scrofa, UniProt P00889); experiment: Protein pin array interaction with citrate synthase; format: binding; conditions: CS as target protein, unheated and pre-heated
T2 construct: purchased
T2 sequence (P00889 28-464): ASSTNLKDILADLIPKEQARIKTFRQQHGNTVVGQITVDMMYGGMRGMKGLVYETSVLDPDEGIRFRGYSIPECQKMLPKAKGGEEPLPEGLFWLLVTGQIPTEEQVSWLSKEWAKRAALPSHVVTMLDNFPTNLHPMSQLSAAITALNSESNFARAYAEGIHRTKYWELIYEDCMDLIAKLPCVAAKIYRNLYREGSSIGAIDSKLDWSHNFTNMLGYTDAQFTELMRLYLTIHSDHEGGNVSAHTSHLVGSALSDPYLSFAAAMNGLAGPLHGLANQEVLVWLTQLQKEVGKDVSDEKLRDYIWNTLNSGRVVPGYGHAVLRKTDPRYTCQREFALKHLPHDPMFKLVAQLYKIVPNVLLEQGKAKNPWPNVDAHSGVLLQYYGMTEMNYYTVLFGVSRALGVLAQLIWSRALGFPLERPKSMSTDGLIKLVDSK
Text: as §1, §2, §3, §4
(§6) The Y-axis lists the amino acid sequences of the 8-mer peptides that are immobilized sequentially in a 96-well format. […]

[2] = target: T3, equine alcohol dehydrogenase (ADH) (Equus caballus, UniProt P00327); experiment: Protein pin array interaction with alcohol dehydrogenase; format: binding; conditions: ADH as ligand, unheated and pre-heated
T3 construct: purchased
Text: as §1, §2, §3, §4, §6

T3 sequence (P00327 whole entry): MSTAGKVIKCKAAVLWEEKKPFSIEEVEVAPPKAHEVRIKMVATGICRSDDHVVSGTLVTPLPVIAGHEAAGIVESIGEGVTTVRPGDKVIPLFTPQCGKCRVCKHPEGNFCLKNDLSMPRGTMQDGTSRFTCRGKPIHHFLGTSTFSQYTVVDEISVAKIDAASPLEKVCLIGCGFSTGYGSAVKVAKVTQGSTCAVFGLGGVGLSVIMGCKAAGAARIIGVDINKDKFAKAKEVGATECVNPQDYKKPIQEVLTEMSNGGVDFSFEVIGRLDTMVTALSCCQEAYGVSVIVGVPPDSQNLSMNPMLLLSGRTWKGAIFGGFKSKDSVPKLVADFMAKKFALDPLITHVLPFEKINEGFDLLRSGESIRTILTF

Row | Sequence | protein pin assay result with target protein beta amyloid (beta amyloid) | absorbance at λ=450 nm, interaction with γD crystallin (γD crystallin) | absorbance at λ=450 nm, interaction with βH crystallin (bovine βH crystallin) | absorbance at λ=450 nm, interaction with CS [1] | absorbance at λ=450 nm, interaction with ADH [2]
1 | HGFISREF [Peptide 56] | positive | maximum absorbances | – | – | –
2 | EFHRKYRI [Peptide 59] | – | maximum absorbances | – | – | –
3 | SPFYLRPP [Peptide 23] | positive | – | Maximum absorbances | – | –
4 | SLSPFYLR [Peptide 22] | positive | maximum absorbances | – | absorbance maxima | Maximum absorbances
5 | RLEKDRFS [Peptide 35] | positive | – | Maximum absorbances | – | Maximum absorbances
6 | KYRIPADV [Peptide 61] | positive | – | Maximum absorbances | – | –
7 | PFFPFHSP [Peptide 7] | positive | maximum absorbances | – | – | Maximum absorbances
8 | FPFHSPSR [Peptide 8] | positive | – | – | absorbance maxima | –
9 | IAIHHPWI [Peptide 2] | – | maximum absorbances | – | – | –
10 | FFGEHLLE [Peptide 14] | – | – | – | – | Maximum absorbances
11 | WIRRPFFP [Peptide 5] | positive | maximum absorbances | Maximum absorbances | absorbance maxima | Maximum absorbances
12 | LKVKVLGD [Peptide 45] | positive | – | Maximum absorbances | – | –
13 | FHSPSRLF [Peptide 9] | positive | – | – | – | –
14 | LTVNGPRK [Peptide 72] | positive | – | – | absorbance maxima | –
15 | RTIPITRE [Peptide 79] | positive | – | Maximum absorbances | absorbance maxima | Maximum absorbances
16 | FISREFHR [Peptide 57] | positive | – | Maximum absorbances | absorbance maxima | –
17 | SFLRAPSW [Peptide 27] | positive | maximum absorbances | – | – | –
18 | PPSFLRAP [Peptide 26] | – | – | Maximum absorbances | – | –
19 | LRPPSFLR [Peptide 25] | – | – | – | – | Maximum absorbances
20 | FYLRPPSF [Peptide 24] | positive | maximum absorbances | Maximum absorbances | absorbance maxima | –
21 | FSVNLDVK [Peptide 38] | positive | maximum absorbances | Maximum absorbances | absorbance maxima | Maximum absorbances
22 | DQFFGEHL [Peptide 13] | positive | maximum absorbances | – | – | –
23 | SREFHRKY [Peptide 58] | – | – | – | – | Maximum absorbances
24 | LRAPSWFD [Peptide 28] | – | – | – | absorbance maxima | –
25 | LFPTSTSL [Peptide 19] | positive | – | – | – | Maximum absorbances
26 | HGKHEERQ [Peptide 51] | positive | – | – | – | –
27 | KHEERQDE [Peptide 52] | positive | – | – | – | –
28 | GVLTVNGP [Peptide 71] | positive | maximum absorbances | Maximum absorbances | – | Maximum absorbances
